Molecular target: T1, LBD37 (Arabidopsis thaliana, UniProt Q9FN11 1-250)
T1 sequence: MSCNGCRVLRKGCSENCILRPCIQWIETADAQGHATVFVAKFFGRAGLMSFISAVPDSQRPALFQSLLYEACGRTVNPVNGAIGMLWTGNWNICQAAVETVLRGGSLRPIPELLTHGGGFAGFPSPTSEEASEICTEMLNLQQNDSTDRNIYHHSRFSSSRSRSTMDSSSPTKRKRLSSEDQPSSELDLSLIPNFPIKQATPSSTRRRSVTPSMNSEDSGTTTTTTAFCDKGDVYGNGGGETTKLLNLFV
Test: EMSA; 5 mM HEPES-KOH pH 8.0, 50 mM KCl, 1 mM DTT, 10% glycerol, 20 uL, on ice 60 min; 5% native PAGE in TBE
Conditions: protein: recombinant; tags: MBP (N-terminal, pMAL-c2X); (LightShift chemiluminescent kit)

B1: NRT2.1 promoter probe, mutated LOB motif (dsDNA)
DNA 1: AGACTAGGAAGATGCTTGAAAAGAAAATGGATTCCTCGAAA
DNA 2: TTTCGAGGAATCCATTTTCTTTTCAAGCATCTTCCTAGTCT
B1: no binding.

Reference: paper PMC9555238, “Interaction of BES1 and LBD37 transcription factors modulates brassinosteroid-regulated root forging response under low nitrogen in arabidopsis”
